Data on three molecules can be found in publication PMC3460914, “The Polyoma Virus Large T Binding Protein p150 Is a Transcriptional Repressor of c-MYC”.

Data set [1] addresses T1, GST-p150 (human, UniProt F5H433 1-1005).
T1 sequence: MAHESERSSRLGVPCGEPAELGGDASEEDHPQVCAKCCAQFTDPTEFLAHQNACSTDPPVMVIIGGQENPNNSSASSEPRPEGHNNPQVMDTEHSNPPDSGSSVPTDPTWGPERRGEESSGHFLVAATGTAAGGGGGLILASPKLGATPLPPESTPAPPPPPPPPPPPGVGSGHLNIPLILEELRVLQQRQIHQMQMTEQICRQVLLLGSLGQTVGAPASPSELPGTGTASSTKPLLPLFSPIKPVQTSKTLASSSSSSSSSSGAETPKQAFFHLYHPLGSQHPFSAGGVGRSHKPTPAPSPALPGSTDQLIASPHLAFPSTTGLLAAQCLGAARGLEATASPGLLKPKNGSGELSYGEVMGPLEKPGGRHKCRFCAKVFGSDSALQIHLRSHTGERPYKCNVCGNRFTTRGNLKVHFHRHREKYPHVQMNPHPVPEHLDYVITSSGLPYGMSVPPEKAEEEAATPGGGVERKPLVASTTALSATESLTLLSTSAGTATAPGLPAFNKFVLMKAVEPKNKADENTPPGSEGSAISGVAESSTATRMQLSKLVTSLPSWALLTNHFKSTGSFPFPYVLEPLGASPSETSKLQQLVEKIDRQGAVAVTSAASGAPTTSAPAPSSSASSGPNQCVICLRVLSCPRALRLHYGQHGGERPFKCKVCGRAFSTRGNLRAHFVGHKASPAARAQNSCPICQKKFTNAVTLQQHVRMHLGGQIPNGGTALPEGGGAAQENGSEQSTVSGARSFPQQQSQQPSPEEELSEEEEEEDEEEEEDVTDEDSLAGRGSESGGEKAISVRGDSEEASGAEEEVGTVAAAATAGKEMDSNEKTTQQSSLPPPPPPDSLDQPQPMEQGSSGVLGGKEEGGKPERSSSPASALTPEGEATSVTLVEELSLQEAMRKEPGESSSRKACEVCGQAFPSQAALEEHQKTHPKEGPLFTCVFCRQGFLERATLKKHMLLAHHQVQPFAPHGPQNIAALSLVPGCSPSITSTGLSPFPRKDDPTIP
The data set is described as follows: EMSA; 100 ng protein, 200 ng poly(dA-dT); 10 mM HEPES pH 7.5, 25 nM KCl (so in the source), 2.5 mM MgCl (so in the source), 5 µl ZnCl, 3% glycerol, 2 µg BSA, 200 ng poly(dA-dT); temperature not stated. The conditions noted are these: protein: recombinant; tags: GST; label: 32P (probe); blunt. On the technique in general: In EMSA bound probe runs differently from free probe, usually more slowly.

The target in data set [2] is T1, GST-p150. Description: competition; 50x unlabeled Oct1 vs labeled NHE III1; 10 mM HEPES pH 7.5, 25 nM KCl (so in the source), 2.5 mM MgCl (so in the source), 5 µl ZnCl, 3% glycerol, 2 µg BSA, 200 ng poly(dA-dT); temperature not stated. The following applies: protein: recombinant; tags: GST; blunt.

B1: NHE III1 of c-MYC promoter (dsDNA)
DNA 1: TGGGGAGGGTGGGGAGGGTGGGGAAGG
DNA 2: CCTTCCCCACCCTCCCCACCCTCCCCA
B1: in data set [1], the binding result is “binds”.

B2: p150 consensus sequence (CS) (dsDNA)
DNA 1: GGATCACTGGGTGGGAATCACGCT
DNA 2: AGCGTGATTCCCACCCAGTGATCC
As for B2, the binding result in data set [1] is “binds”.

B3: Oct1 binding site (dsDNA)
DNA 1: TGTCGAATGCAAATCACTAGAA
DNA 2: TTCTAGTGATTTGCATTCGACA
Regarding B3, the binding result in data set [2] was “no binding”.
